This is an account of results in patent US20230242658A1 (published 2023).

The term EC50 denotes the concentration at which the effect is half-maximal. The term IC50 denotes the concentration needed to halve the response being measured.

Assay [1] concerns the target T1, human 4-1BB on CHO-K1 cells (human, UniProt Q07011 24-255). The experiment in a line: FACS; FIG. 11M.
Target sequence in this assay (Q07011 24-255): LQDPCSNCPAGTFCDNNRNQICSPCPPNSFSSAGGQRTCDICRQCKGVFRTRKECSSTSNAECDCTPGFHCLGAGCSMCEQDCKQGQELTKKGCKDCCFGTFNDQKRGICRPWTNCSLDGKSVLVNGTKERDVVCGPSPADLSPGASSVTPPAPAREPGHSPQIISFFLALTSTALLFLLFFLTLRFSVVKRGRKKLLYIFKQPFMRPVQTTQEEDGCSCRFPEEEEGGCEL
Assay [2] deals with T1, human 4-1BB on CHO-K1 cells. The assay is described as follows: FACS; FIG. 11C. Background: In flow cytometry, cells or beads pass a laser one at a time.
The target is the same in assay [3]. The experiment in a line: FACS; FIG. 11K.
Target sequence in this assay (Q07011 24-255): as above
For assay [4] the target is unchanged. The experiment in a line: FACS; FIG. 11G.
Assay [5] has the same target. The assay is described as follows: FACS; FIG. 11D.
Assay [6] has the same target. The experiment in a line: FACS.
Target sequence in this assay (Q07011 24-255): as above
The target is the same in assay [7]. The experiment in a line: FACS; FIG. 11B.
The target is the same in assay [8]. The assay is described as follows: FACS; FIG. 11L.
Target sequence in this assay (Q07011 24-255): as above
The target is the same in assay [9]. The assay is described as follows: FACS blocking of 4-1BBL; FIG. 14C.
The target is the same in assay [10]. The assay is described as follows: FACS blocking of 4-1BBL; FIG. 14D.
Assay [11] shares this target. The assay is described as follows: FACS blocking of 4-1BBL; FIG. 14B.
For assay [12] the target is unchanged. The experiment in a line: FACS; FIG. 11E.
Assay [13] shares this target. The assay is described as follows: FACS blocking of 4-1BBL; FIG. 14A.
The target is the same in assay [14]. The assay is described as follows: FACS; FIG. 11F.
Assay [15] deals with T2, cynomolgus monkey 4-1BB on CHO-K1 cells (cynomolgus monkey).
T2 chain: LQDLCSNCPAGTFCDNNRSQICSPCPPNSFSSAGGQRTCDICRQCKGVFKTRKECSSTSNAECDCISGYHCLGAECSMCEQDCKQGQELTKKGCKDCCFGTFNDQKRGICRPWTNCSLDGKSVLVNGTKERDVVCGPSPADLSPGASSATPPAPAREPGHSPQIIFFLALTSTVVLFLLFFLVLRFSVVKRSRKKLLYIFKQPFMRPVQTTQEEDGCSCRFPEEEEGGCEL
The experiment in a line: FACS; FIG. 12K.

Assay [16] concerns the target T2, cynomolgus monkey 4-1BB on CHO-K1 cells. The experiment in a line: FACS; FIG. 12F.
For assay [17] the target is unchanged. The experiment in a line: FACS; FIG. 12B.
The target is the same in assay [18]. The assay is described as follows: FACS; FIG. 12D.
Assay [19] has the same target. The assay is described as follows: FACS.
For assay [20] the target is unchanged. The assay is described as follows: FACS; FIG. 12L.
Assay [21] has the same target. The assay is described as follows: FACS; FIG. 12H.
Assay [22] has the same target. The experiment in a line: FACS; FIG. 12I.
The target is the same in assay [23]. The experiment in a line: FACS; FIG. 12J.
The target is the same in assay [24]. The assay is described as follows: FACS; FIG. 21B.
Assay [25] shares this target. The experiment in a line: FACS; FIG. 12A.
Assay [26] has the same target. The experiment in a line: FACS; FIG. 21A.
Assay [27] has the same target. The assay is described as follows: FACS; FIG. 12E.
Assay [28] has the same target. The experiment in a line: FACS.
The target is the same in assay [29]. The assay is described as follows: FACS; FIG. 12C.
In assay [30] the target is T3, human PD-L1 on CHO-K1 cells (human, UniProt Q9NZQ7 19-290). The experiment in a line: FACS; MDA-MB-231 cells; FIG. 24E.
T3 sequence (Q9NZQ7 19-290): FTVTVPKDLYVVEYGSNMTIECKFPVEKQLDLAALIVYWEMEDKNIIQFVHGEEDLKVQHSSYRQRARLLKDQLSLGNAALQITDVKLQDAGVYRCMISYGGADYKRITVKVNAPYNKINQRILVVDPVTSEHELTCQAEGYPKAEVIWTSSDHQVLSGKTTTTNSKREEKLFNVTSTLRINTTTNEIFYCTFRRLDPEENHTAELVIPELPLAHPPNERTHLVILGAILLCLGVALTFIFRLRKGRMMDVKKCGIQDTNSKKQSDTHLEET
In assay [31] the target is T3, human PD-L1 on CHO-K1 cells. The experiment in a line: FACS; MDA-MB-231 cells; FIG. 24C.
Assay [32] shares this target. The assay is described as follows: FACS; MDA-MB-231 cells; FIG. 24D.

B1: Urelumab (antibody, V domains shown)
VH: QVQLQQWGAGLLKPSETLSLTCAVYGGSFSGYYWSWIRQSPEKGLEWIGEINHGGYVTYNPSLESRVTISVDTSKNQFSLKLSSVTAADTAVYYCARDYGPGNYDWYFDLWGRGTLVTVSS
VL: EIVLTQSPATLSLSPGERATLSCRASQSVSSYLAWYQQKPGQAPRLLIYDASNRATGIPARFSGSGSGTDFTLTISSLEPEDFAVYYCQQRSNWPPALTFGGGTKVEIKR
In the case of B1, the EC50 in [1] was determined as 0.55 nM; in assay [2], 0.222 nM; in assay [3], 0.583 nM; in assay [4] it was 0.222 nM; in assay [5], 0.222 nM; in [6], 0.222 nM. In addition, the EC50 is 0.222 nM in assay [7], 0.565 nM in assay [8], 0.222 nM in [12] and 0.222 nM in [14]. The IC50 in [9] was 2.41 nM; in assay [10], 2.37 nM; in assay [11], 1.5 nM; in assay [13], about 2.53 nM.

B2: Utomilumab (antibody, V domains shown)
VH: EVQLVQSGAEVKKPGESLRISCKGSGYSFSTYWISWVRQMPGKGLEWMGKIYPGDSYTNYSPSFQGQVTISADKSISTAYLQWSSLKASDTAMYYCARGYGIFDYWGQGTLVTVSS
VL: SYELTQPPSVSVSPGQTASITCSGDNIGDQYAHWYQQKPGQSPVLVIYQDKNRPSGIPERFSGSNSGNTATLTISGTQAMDEADYYCATYTGFGSLAVFGGGTKLTVLG
With B2, the EC50 in assay [15] came to 0.503 nM; in assay [16], 3.46 nM; in assay [17], 3.46 nM; in assay [18], 3.46 nM; in assay [19] it was 0.337 nM; in assay [20], 0.425 nM. The EC50 in [21] was 0.393 nM; in [22], 0.378 nM; in [23] it was 0.435 nM; in assay [24], 0.984 nM; in assay [25] it was 3.46 nM; in assay [26], 1.34 nM. In addition, the EC50 in assay [27] is 3.46 nM; in [28], 0.347 nM; in assay [29] it was 3.46 nM.

B3: PR000265 (antibody, V domains shown)
VH: EVQLVESGGGLVQPGGSLRLSCAASGFTFSSYWMSWVRQAPGKGLEWVANIKQEGSEKYYVDSVKGRFTISRDNAKNSLYLQMNSLRAEDTAVYYCARDRAVAGAFDIWGQGTMVTVSS
VL: DIQMTQSPSTLSASVGDRVTVTCRASQSIYIWLAWYQQKPGKAPNLLIYKASSLETGVPSRFSGSGSGTEFTLTISSLQPDDFATYYCQQYYGSSRTFGQGTKVEIKR
For the molecule B3, the EC50 in [30] was determined as 0.233 nM; in [31], 0.11 nM; in assay [32], 0.233 nM.
